± gives the uncertainty stated by the source.
Assay: self-splicing fitness, log relative to wild type (ln ratio); higher = more splicing; Tetrahymena group I intron in knt gene, E. coli kanamycin selection, DiMSum; sequences stand for … in CUCUCU…GGAGGGAAAAGUUAUCAGGCAUGCACCUGGUAGCUAGUCUUUAAACCAAUAGAUUGCAUCGGUUUAAAAGGCAAGACCGUCAAAUUGCGGGAAAGGGGUCAACAGCCGUUCAGUACCAAGUCUCAGGGGAAACUUUGAGAUGGCCUUGCAAAGGGUAUGGUAAUAAGCUGACGGACAUGGUCCUAACCACGCAGCCAAGUCCUAAGUCAACAGAUCUUCUGUUGAUAUGGAUGCAGUUCACAGACUAAAUGUCGGUCGGGGAAGAUGUAUUCUUCUCAUAAGAUAUAGUCGGACCUCUCCUUAAUGGGAGCUAGCGGAUGAAGUGAUGCAACACUGGAGCCGCUGGGAACUAAUUUGUAUGCGAAAGUAUAUUGAUUAGUUUUGGAGUACUCGUGGUCG
Procedure, shortened: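 The eight P1ex-region nucleotides of an intron in the knt kanamycin-resistance gene on pET-22b(+) were all randomised and the library put into E. coli BL21(DE3). Six replicate transformations were grown overnight at 37°C or 30°C on LB agar with or without 25 μg/mL kanamycin, together with 100 μg/mL carbenicillin, 50 μM IPTG and 0.2% rhamnose. Colonies were pooled and amplicon-sequenced on an Illumina HiSeq 2500. Fitness from DiMSum is the error-weighted combination of wild-type-normalised replicate fold changes, kanamycin over none.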

Row | Sequence | self-splicing fitness (ln) (30 °C) | self-splicing fitness (ln) (37 °C)
1 | GUGAAGCAAUAUUACGGAGU | -1.3 ± 0.072 | -0.63 ± 0.091
2 | GUGAAGCAAUAUUACGGCGG | -1.24 ± 0.13 | -1.26 ± 0.14
3 | GUGAAGCAAUAUUACGGUCU | 0.172 ± 0.098 | 0.824 ± 0.096
4 | GUGAAGCAAUAUUACGGUUC | -2.13 ± 0.12 | -1.19 ± 0.14
5 | GUGAAGCAAUAUUACGUACA | -0.778 ± 0.082 | 0.51 ± 0.12
6 | GUGAAGCAAUAUUACGUACU | -1.14 ± 0.055 | -0.0726 ± 0.07
7 | GUGAAGCAAUAUUACGUAGU | -2.19 ± 0.064 | -1.1 ± 0.08
8 | GUGAAGCAAUAUUACGUGAG | -1.26 ± 0.076 | -0.555 ± 0.097
9 | GUGAAGCAAUAUUACGUUUU | -4.1 ± 0.14 | -3.88 ± 0.22
10 | GUGCAGCAAUAUUACGAAAA | -2.34 ± 0.19 | -2.49 ± 0.22
11 | GUGCAGCAAUAUUACGAACG | -2.4 ± 0.2 | -0.213 ± 0.14
12 | GUGCAGCAAUAUUACGACGA | -0.272 ± 0.15 | 0.701 ± 0.14
13 | GUGCAGCAAUAUUACGAUGA | -0.903 ± 0.14 | -0.772 ± 0.14
14 | GUGCAGCAAUAUUACGCAAA | -0.928 ± 0.1 | -0.119 ± 0.13
15 | GUGCAGCAAUAUUACGCACU | -3.41 ± 0.28 | -2.3 ± 0.37
16 | GUGCAGCAAUAUUACGCCAU | -2.23 ± 0.16 | -2.62 ± 0.23
17 | GUGCAGCAAUAUUACGCCGA | -1.56 ± 0.13 | -0.832 ± 0.12
18 | GUGCAGCAAUAUUACGCCUG | -2.95 ± 0.2 | -2.49 ± 0.26
19 | GUGCAGCAAUAUUACGCGCA | -2.62 ± 0.27 | –
20 | GUGCAGCAAUAUUACGCGGA | -2.35 ± 0.27 | -1.08 ± 0.12
21 | GUGCAGCAAUAUUACGCUAG | -3.71 ± 0.31 | -2.47 ± 0.32
22 | GUGCAGCAAUAUUACGCUCU | -1.77 ± 0.14 | -0.404 ± 0.15
23 | GUGCAGCAAUAUUACGCUGA | -2.38 ± 0.17 | -1.6 ± 0.16
24 | GUGCAGCAAUAUUACGGAUC | 0.0925 ± 0.13 | 0.198 ± 0.14
25 | GUGCAGCAAUAUUACGGCCG | -1.8 ± 0.26 | -1.12 ± 0.3

Row | Sequence | self-splicing fitness (ln) (30 °C) | self-splicing fitness (ln) (37 °C)
26 | GUGCAGCAAUAUUACGGCUU | -0.306 ± 0.052 | -0.128 ± 0.072
27 | GUGCAGCAAUAUUACGGGUA | -2.35 ± 0.1 | -2.12 ± 0.12
28 | GUGCAGCAAUAUUACGGGUG | -3.36 ± 0.12 | -1.87 ± 0.12
29 | GUGCAGCAAUAUUACGUACA | – | -2.03 ± 0.34
30 | GUGCAGCAAUAUUACGUAUA | -1.42 ± 0.073 | 0.0392 ± 0.069
31 | GUGCAGCAAUAUUACGUAUC | -1.69 ± 0.13 | -1.79 ± 0.13
32 | GUGCAGCAAUAUUACGUUAG | -2.62 ± 0.14 | -0.353 ± 0.11
33 | GUGCAGCAAUAUUACGUUGC | -3.82 ± 0.31 | -2.93 ± 0.31
34 | GUGCAGCAAUAUUACGUUUC | -3.02 ± 0.11 | -0.289 ± 0.11
35 | GUGGAGCAAUAUUACGAAUG | -3.75 ± 0.4 | -1.77 ± 0.37
36 | GUGGAGCAAUAUUACGAGAG | -3.58 ± 0.22 | -2.7 ± 0.38
37 | GUGGAGCAAUAUUACGAGCU | -3.17 ± 0.26 | -2.01 ± 0.28
38 | GUGGAGCAAUAUUACGAUAU | -1.83 ± 0.17 | -0.975 ± 0.15
39 | GUGGAGCAAUAUUACGAUCG | – | -3.31 ± 0.47
40 | GUGGAGCAAUAUUACGAUUA | -2.1 ± 0.48 | -1.68 ± 0.34
41 | GUGGAGCAAUAUUACGAUUG | -1.98 ± 0.39 | –
42 | GUGGAGCAAUAUUACGCAGG | – | -1.19 ± 0.28
43 | GUGGAGCAAUAUUACGCAUC | – | -2.03 ± 0.41
44 | GUGGAGCAAUAUUACGCAUU | -2.84 ± 0.22 | -1.14 ± 0.13
45 | GUGGAGCAAUAUUACGCGAG | – | -1.53 ± 0.38
46 | GUGGAGCAAUAUUACGGAAU | -3.23 ± 0.16 | -1.33 ± 0.17
47 | GUGGAGCAAUAUUACGGAUU | -3.15 ± 0.47 | –
48 | GUGGAGCAAUAUUACGGGUG | -3.8 ± 0.37 | -2.9 ± 0.47
49 | GUGGAGCAAUAUUACGGUAC | -2.81 ± 0.14 | -1.71 ± 0.15
50 | GUGGAGCAAUAUUACGGUAU | -2.04 ± 0.23 | -1.71 ± 0.27

Row | Sequence | self-splicing fitness (ln) (30 °C) | self-splicing fitness (ln) (37 °C)
51 | GUGGAGCAAUAUUACGUAGG | -3.17 ± 0.29 | -0.82 ± 0.24
52 | GUGGAGCAAUAUUACGUCCU | -1.24 ± 0.14 | -0.219 ± 0.14
53 | GUGGAGCAAUAUUACGUGGA | -2.92 ± 0.28 | -3.07 ± 0.36
54 | GUGUAGCAAUAUUACGAACA | -1.66 ± 0.16 | -0.829 ± 0.12
55 | GUGUAGCAAUAUUACGACUU | -0.0355 ± 0.15 | -0.00223 ± 0.19
56 | GUGUAGCAAUAUUACGAGGG | -3.38 ± 0.44 | -2.99 ± 0.47
57 | GUGUAGCAAUAUUACGAGUA | – | -1.56 ± 0.19
58 | GUGUAGCAAUAUUACGAGUU | -2.8 ± 0.15 | -1.39 ± 0.11
59 | GUGUAGCAAUAUUACGAUGG | -2.91 ± 0.19 | -1.81 ± 0.18
60 | GUGUAGCAAUAUUACGCCAC | – | -1.07 ± 0.48
61 | GUGUAGCAAUAUUACGCUAU | – | -1.15 ± 0.24
62 | GUGUAGCAAUAUUACGCUGG | -3.59 ± 0.38 | -1.54 ± 0.22
63 | GUGUAGCAAUAUUACGGAGA | – | -2.36 ± 0.45
64 | GUGUAGCAAUAUUACGGAGU | -2.96 ± 0.17 | -2.61 ± 0.29
65 | GUGUAGCAAUAUUACGGAUG | -3.29 ± 0.41 | -0.59 ± 0.35
66 | GUGUAGCAAUAUUACGGCCU | -0.169 ± 0.073 | 0.685 ± 0.098
67 | GUGUAGCAAUAUUACGGCUC | -0.377 ± 0.064 | 0.195 ± 0.077
68 | GUGUAGCAAUAUUACGGCUU | -0.494 ± 0.078 | 0.195 ± 0.11
69 | GUGUAGCAAUAUUACGGGCA | -0.665 ± 0.18 | -1.29 ± 0.19
70 | GUGUAGCAAUAUUACGGGGG | -3.23 ± 0.41 | -2.07 ± 0.43
71 | GUGUAGCAAUAUUACGGUCA | -1.36 ± 0.14 | -2.06 ± 0.12
72 | GUGUAGCAAUAUUACGGUGA | -1.45 ± 0.11 | -0.916 ± 0.14
73 | GUGUAGCAAUAUUACGGUUU | -1.04 ± 0.086 | -0.738 ± 0.11
74 | GUGUAGCAAUAUUACGUAUA | -2.85 ± 0.49 | -0.725 ± 0.15
75 | GUGUAGCAAUAUUACGUUUC | -2.63 ± 0.13 | -1.92 ± 0.13

Row | Sequence | self-splicing fitness (ln) (30 °C) | self-splicing fitness (ln) (37 °C)
76 | GUUAAGCAAUAUUACGACUC | 0.708 ± 0.15 | 0.214 ± 0.17
77 | GUUAAGCAAUAUUACGAGAU | -2.48 ± 0.3 | -1.81 ± 0.35
78 | GUUAAGCAAUAUUACGAUUG | -3.09 ± 0.34 | -1.63 ± 0.34
79 | GUUAAGCAAUAUUACGCAAA | -2.21 ± 0.27 | -2.21 ± 0.22
80 | GUUAAGCAAUAUUACGCAUC | -2.3 ± 0.1 | -0.951 ± 0.095
81 | GUUAAGCAAUAUUACGCCUG | -0.512 ± 0.11 | -0.224 ± 0.12
82 | GUUAAGCAAUAUUACGCGAA | -2.09 ± 0.21 | 0.0507 ± 0.2
83 | GUUAAGCAAUAUUACGCUAU | – | -0.862 ± 0.32
84 | GUUAAGCAAUAUUACGCUCU | -1.24 ± 0.1 | -1.12 ± 0.11
85 | GUUAAGCAAUAUUACGGAUA | -2.09 ± 0.12 | -1.61 ± 0.16
86 | GUUAAGCAAUAUUACGGCUU | -1.22 ± 0.11 | -0.546 ± 0.14
87 | GUUAAGCAAUAUUACGGGUC | -1.33 ± 0.34 | -1.77 ± 0.41
88 | GUUAAGCAAUAUUACGGUGC | -2.42 ± 0.1 | -1.23 ± 0.12
89 | GUUAAGCAAUAUUACGUAAC | -3.15 ± 0.44 | –
90 | GUUAAGCAAUAUUACGUAAU | -2.09 ± 0.079 | -1.49 ± 0.089
91 | GUUAAGCAAUAUUACGUACG | -1.83 ± 0.14 | -0.662 ± 0.14
92 | GUUAAGCAAUAUUACGUAUA | -1.79 ± 0.14 | -1.54 ± 0.15
93 | GUUAAGCAAUAUUACGUCCA | -1.21 ± 0.088 | 0.057 ± 0.097
94 | GUUAAGCAAUAUUACGUCUA | -0.524 ± 0.1 | -0.261 ± 0.099
95 | GUUAAGCAAUAUUACGUGAA | -1.75 ± 0.11 | -1.47 ± 0.16
96 | GUUAAGCAAUAUUACGUGGU | -2.79 ± 0.15 | -2.35 ± 0.19
97 | GUUAAGCAAUAUUACGUGUG | -1.93 ± 0.093 | -1.21 ± 0.098
98 | GUUAAGCAAUAUUACGUUAU | -1.62 ± 0.12 | -0.968 ± 0.13
99 | GUUAAGCAAUAUUACGUUCC | -2.16 ± 0.18 | -0.875 ± 0.23
